Reference: the supplement of paper PMC12042874
± gives the uncertainty stated by the source.

Assay: amyloid nucleation score (Sup35N fusion, yeast selection) (log enrichment); library NNK1; higher = more nucleation; inactive = no reads after selection
In short: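 The nucleation score, computed with DiMSum, is the log enrichment of output over input reads, centred on the mode score of non-aggregating sequences. Sequences with under 100 input reads were dropped. Reads were generated by Illumina sequencing of plasmid inserts from psi-negative yeast with Sup35N fused to peptides of 20 random codons, induced with 100 μM copper sulfate for 24 hours and grown 7 days at 30°C on medium lacking adenine and uracil.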
QMSKPARTLKSVRGPLDLRI showed an amyloid nucleation score of -0.389 ± 0.61.
For RFSMFRQFRSDLGCFPIMVP, the amyloid nucleation score was 0.254 ± 0.72.
CDSVV gave an amyloid nucleation score of -0.221 ± 0.73.
Substance LVEVNWI has an amyloid nucleation score of -0.412 ± 0.47.
For NVVWAYSMAFMTSAFSVNYP, the amyloid nucleation score was “inactive”.
With ICYIPADFVKPAMVNLYLAM the amyloid nucleation score was 2.99 ± 0.11.
Work on ISSQFGAKTIFPRSVPPQAI yielded an amyloid nucleation score of -0.562 ± 0.35.
NSEMCWFFNMISSTLAHLLV showed an amyloid nucleation score of 1.75 ± 0.31.
For LKTRALASGWEAECADRGGV, the amyloid nucleation score was -0.056 ± 0.64.
Substance LYVDGGPCPTAELGQRSYEK has an amyloid nucleation score of -0.17 ± 0.42.
For VREGPRSRSGG, the amyloid nucleation score was 0.149 ± 0.41.
Substance SRDRNLVGLKLHVTVNKDVF has an amyloid nucleation score of -1.41 ± 2.4.
In the case of YIAVGV, the amyloid nucleation score is reported as 0.015 ± 0.62.
NLVWSYFLLGTDSYITTYDW showed an amyloid nucleation score of 0.314 ± 0.79.
In the case of AGLRVYKIKSFRLEDSVNAG, the amyloid nucleation score is reported as 1.49 ± 0.71.
With RMFEVARSSKRSLFHSILET the amyloid nucleation score was 0.109 ± 0.26.
Substance MMWLCAVFPGIRFYGYPGLN has an amyloid nucleation score of -1.88 ± 2.7.
With RKLFAY the amyloid nucleation score was “inactive”.
With TISGAVRGCGGCSIRWLMSL the amyloid nucleation score was -0.663 ± 0.33.
DYVHFMCHGLGR showed an amyloid nucleation score of -0.185 ± 0.63.
CSILF showed an amyloid nucleation score of 0.011 ± 0.75.
Work on TMSSFDGPSV yielded an amyloid nucleation score of -2.58 ± 1.8.
In the case of FWIDLGMTLGTCRSFLSLRS, the amyloid nucleation score is reported as 0.217 ± 0.6.
LNTCLFISDTAVFIMASYMV gave an amyloid nucleation score of 3.06 ± 0.45.
For YGCVCGSDNTHWNYMLVNNH, the amyloid nucleation score was 7.222 ± 0.051.
SKICLMSIYHLQLDPFIGMP gave an amyloid nucleation score of 3.03 ± 0.17.
LSCKSVVPLSNSWYAIVLRL showed an amyloid nucleation score of 1.19 ± 0.29.
Substance HRCPLTGFSSL has an amyloid nucleation score of 0.022 ± 0.45.
With SAVGAIDANIYKSDGYSWG the amyloid nucleation score was -0.879 ± 0.58.
For FRLMPEYVATYMLSLRMCQC, the amyloid nucleation score was -0.565 ± 1.2.
For FGTLGK, the amyloid nucleation score was 1.88 ± 0.38.
In the case of GLLRAA, the amyloid nucleation score is reported as 0.296 ± 0.27.
With CVMFLGFVYVFSSLYPT the amyloid nucleation score was -0.981 ± 0.63.
For FNCLMALIFPDVLDCSYSVD, the amyloid nucleation score was 1.26 ± 0.9.
For CFIIIQPCANGWWYRCRSCV, the amyloid nucleation score was -0.236 ± 0.38.
CPRIYGVRLKSSRLPAGVYV gave an amyloid nucleation score of 1 ± 1.
With WSKLYIAK the amyloid nucleation score was -0.69 ± 0.41.
In the case of LSVNWFGCTWQNHKEGIGRN, the amyloid nucleation score is reported as 1.79 ± 0.12.
LIWFVYMD showed an amyloid nucleation score of 0.347 ± 0.55.
In the case of LLWEPRKFFESNWLSIQSAK, the amyloid nucleation score is reported as -0.668 ± 1.7.
For GYTKILMRHSNFCMTK, the amyloid nucleation score was 0.428 ± 0.19.
PFSAWYNNNTLTYSIDCINF gave an amyloid nucleation score of 0.58 ± 0.19.
In the case of QFKFINVDEAHT, the amyloid nucleation score is reported as 0.297 ± 1.2.
With LWRLEWLLSGQRGTSPAVRV the amyloid nucleation score was 0.764 ± 0.55.
With MHLCINWSLSCRAADQFMRR the amyloid nucleation score was 3.53 ± 0.17.
Work on SRLATQTRLKMAGSISLFRS yielded an amyloid nucleation score of -0.208 ± 1.2.
Work on PVDVGYIRIPP yielded an amyloid nucleation score of 0.093 ± 0.87.
Work on ARYGVSGHAYDTNPRRYFGQ yielded an amyloid nucleation score of -0.903 ± 2.4.
KSPRVSVGTASVSWRKKFTW showed an amyloid nucleation score of 0.2 ± 0.74.
In the case of MMFAKDSI, the amyloid nucleation score is reported as 0.372 ± 0.47.
TTFSEVERLWGWSVFCNLST gave an amyloid nucleation score of 0.723 ± 0.66.
Substance GCDTQLQMGLFMSYIMNTSV has an amyloid nucleation score of -0.621 ± 1.1.
ILWPGWDYTKKIVFSCLMVI showed an amyloid nucleation score of -0.613 ± 0.29.
In the case of SFLLYGLFAYVSAYIRDICA, the amyloid nucleation score is reported as -0.166 ± 0.38.
AVSIWSPRIGVCETFQLDVV gave an amyloid nucleation score of -0.573 ± 0.57.
Substance RVVSCMTSRMLWSMRDPIYY has an amyloid nucleation score of 0.217 ± 0.41.
For RRCCNVERGSAKVALTV, the amyloid nucleation score was -0.153 ± 1.3.
With DRFSYLEHDSRDRRRVE the amyloid nucleation score was “inactive”.
NYMSMWTV gave an amyloid nucleation score of 0.324 ± 0.9.
FRMNRKVRC showed an amyloid nucleation score of 0.082 ± 0.29.
In the case of KWLPMKMKLWFDNSYGGQWF, the amyloid nucleation score is reported as -0.265 ± 1.2.
AESLIKHLK showed an amyloid nucleation score of 0.334 ± 0.43.
With FGSRVVGRCVETSHSILFVL the amyloid nucleation score was 0.58 ± 1.1.
For PACFSGCEVGFASDMCVLEL, the amyloid nucleation score was 0.947 ± 0.42.
In the case of NGYIKRVFFSVNMFSMHTSF, the amyloid nucleation score is reported as 0.079 ± 0.48.
For VFLSADDVSGPRVDAVSGYS, the amyloid nucleation score was 0.713 ± 0.5.
GARYVLYMLT gave an amyloid nucleation score of -0.85 ± 0.88.
Substance VMLPHHWSLNKNY has an amyloid nucleation score of 0.264 ± 0.29.
ATLLFRFV gave an amyloid nucleation score of 0.831 ± 0.64.
Substance CFPMIQMEHSIKS has an amyloid nucleation score of -0.449 ± 1.1.
With FLLESL the amyloid nucleation score was “inactive”.
AGCDNMIYMSTWVKWESN gave an amyloid nucleation score of 0.197 ± 0.31.
LIRNKIRR showed an amyloid nucleation score of -1.12 ± 0.93.
For KYENGCTDTWGMTVASPLIK, the amyloid nucleation score was -0.515 ± 1.
DNIYIYIPVTYFCATLRMWR gave an amyloid nucleation score of 5.09 ± 0.071.
With ILLRLGDVVRIGLVFVTSFG the amyloid nucleation score was 0.421 ± 0.61.
GPRVSPVKFIVRLGQVNLDR gave an amyloid nucleation score of 0.448 ± 0.61.
With SFRAKDG the amyloid nucleation score was “inactive”.
With LRRLEGLMSLGSFKFSPYGP the amyloid nucleation score was 0.227 ± 1.2.
ILVSQCRRLVYFVGSVCFST gave an amyloid nucleation score of 0.622 ± 0.53.
Work on TFLEIKVRD yielded an amyloid nucleation score of -0.496 ± 0.19.
With ASKKGPWFYSAVSYGLA the amyloid nucleation score was -0.128 ± 0.34.
With FTVVWGHQVYVMTSPFSSAG the amyloid nucleation score was 5.76 ± 0.062.
Substance LTLFEPLMRDCYICSYFNFF has an amyloid nucleation score of 7.047 ± 0.053.
AFVIFVYNKSIAQIWHFRGY showed an amyloid nucleation score of -0.797 ± 0.37.
Work on GGLPGNRSYRGWSSIFACLR yielded an amyloid nucleation score of 0.021 ± 0.49.
